The MegaScale stability set (Tsuboyama et al. 2023)

B1: HEEH_KT_rd6_3546 (parent)
chain: SEEDKEREHWERLNRDFELRVLDTTFIAHHAEEVIKLLRWLEK

Variants of: B1
Experiment: folding stability dG (cDNA display proteolysis); higher = more stable
Details: PBS, room temperature

Question: Which “folding stability dG” value does the source give for SEEDKEREKWERLNRDFELRVLDTTFIAHHAEEVIKLLRWLEK [H9K] here?
Answer: Its value is 1.34 kcal/mol.

Question: For SEEDKEREYWERLNRDFELRVLDTTFIAHHAEEVIKLLRWLEK [H9Y], which “folding stability dG” value is on record?
Answer: The value was 1.65 kcal/mol.

Question: Which “folding stability dG” value does the source give for SEEDKEREAWERLNRDFELRVLDTTFIAHHAEEVIKLLRWLEK [H9A] here?
Answer: Its value is 1.42 kcal/mol.

Question: With SEEDKEREVWERLNRDFELRVLDTTFIAHHAEEVIKLLRWLEK [H9V] as the variant, how does the “folding stability dG” value read?
Answer: Its value is 1.47 kcal/mol.

Question: With SEEDKERENWERLNRDFELRVLDTTFIAHHAEEVIKLLRWLEK [H9N] as the variant, how does the “folding stability dG” value read?
Answer: The value was 1.23 kcal/mol.

Question: For SEEDKEREWWERLNRDFELRVLDTTFIAHHAEEVIKLLRWLEK [H9W], which “folding stability dG” value is on record?
Answer: Its value is 2.17 kcal/mol.

Question: Which “folding stability dG” value does the source give for SEEDKERESWERLNRDFELRVLDTTFIAHHAEEVIKLLRWLEK [H9S] here?
Answer: The value was 1.38 kcal/mol.

Question: For SEEDKERECWERLNRDFELRVLDTTFIAHHAEEVIKLLRWLEK [H9C], which “folding stability dG” value is on record?
Answer: The value was 2.53 kcal/mol.

Question: With SEEDKERETWERLNRDFELRVLDTTFIAHHAEEVIKLLRWLEK [H9T] as the variant, how does the “folding stability dG” value read?
Answer: The value was 1.5 kcal/mol.

Question: With SEEDKEREPWERLNRDFELRVLDTTFIAHHAEEVIKLLRWLEK [H9P] as the variant, how does the “folding stability dG” value read?
Answer: The value was 1.1 kcal/mol.

Question: For SEEDKEREMWERLNRDFELRVLDTTFIAHHAEEVIKLLRWLEK [H9M], which “folding stability dG” value is on record?
Answer: The value was 1.64 kcal/mol.

Question: For SEEDKERERWERLNRDFELRVLDTTFIAHHAEEVIKLLRWLEK [H9R], which “folding stability dG” value is on record?
Answer: The value was 1.31 kcal/mol.

Question: For SEEDKEREGWERLNRDFELRVLDTTFIAHHAEEVIKLLRWLEK [H9G], which “folding stability dG” value is on record?
Answer: Its value is 1.42 kcal/mol.

Question: With SEEDKEREEWERLNRDFELRVLDTTFIAHHAEEVIKLLRWLEK [H9E] as the variant, how does the “folding stability dG” value read?
Answer: The value was 1.2 kcal/mol.

Question: With SEEDKERELWERLNRDFELRVLDTTFIAHHAEEVIKLLRWLEK [H9L] as the variant, how does the “folding stability dG” value read?
Answer: The value was 1.53 kcal/mol.

Question: For SEEDKEREQWERLNRDFELRVLDTTFIAHHAEEVIKLLRWLEK [H9Q], which “folding stability dG” value is on record?
Answer: Its value is 1.35 kcal/mol.

Question: For SEEDKEREDWERLNRDFELRVLDTTFIAHHAEEVIKLLRWLEK [H9D], which “folding stability dG” value is on record?
Answer: The value was 1.2 kcal/mol.

Question: Which “folding stability dG” value does the source give for SEEDKEREIWERLNRDFELRVLDTTFIAHHAEEVIKLLRWLEK [H9I] here?
Answer: The value was 1.86 kcal/mol.

Question: Which “folding stability dG” value does the source give for SEEDKEREFWERLNRDFELRVLDTTFIAHHAEEVIKLLRWLEK [H9F] here?
Answer: The value was 1.91 kcal/mol.

Question: With SEEDPEREHWERLNRDFELRVLDTTFIAHHAEEVIKLLRWLEK [K5P] as the variant, how does the “folding stability dG” value read?
Answer: The value was 1.28 kcal/mol.

Question: Which “folding stability dG” value does the source give for SEEDDEREHWERLNRDFELRVLDTTFIAHHAEEVIKLLRWLEK [K5D] here?
Answer: Its value is 1.41 kcal/mol.

Question: For SEEDSEREHWERLNRDFELRVLDTTFIAHHAEEVIKLLRWLEK [K5S], which “folding stability dG” value is on record?
Answer: Its value is 1.08 kcal/mol.

Question: Which “folding stability dG” value does the source give for SEEDVEREHWERLNRDFELRVLDTTFIAHHAEEVIKLLRWLEK [K5V] here?
Answer: Its value is 1.46 kcal/mol.

Question: With SEEDYEREHWERLNRDFELRVLDTTFIAHHAEEVIKLLRWLEK [K5Y] as the variant, how does the “folding stability dG” value read?
Answer: The value was 1.35 kcal/mol.

Question: Which “folding stability dG” value does the source give for SEEDHEREHWERLNRDFELRVLDTTFIAHHAEEVIKLLRWLEK [K5H] here?
Answer: Its value is 1.4 kcal/mol.

Question: Which “folding stability dG” value does the source give for SEEDGEREHWERLNRDFELRVLDTTFIAHHAEEVIKLLRWLEK [K5G] here?
Answer: The value was 1.27 kcal/mol.

Question: For SEEDWEREHWERLNRDFELRVLDTTFIAHHAEEVIKLLRWLEK [K5W], which “folding stability dG” value is on record?
Answer: Its value is 1.67 kcal/mol.

Question: Which “folding stability dG” value does the source give for SEEDQEREHWERLNRDFELRVLDTTFIAHHAEEVIKLLRWLEK [K5Q] here?
Answer: The value was 1.11 kcal/mol.

Question: Which “folding stability dG” value does the source give for SEEDLEREHWERLNRDFELRVLDTTFIAHHAEEVIKLLRWLEK [K5L] here?
Answer: Its value is 1.15 kcal/mol.

Question: Which “folding stability dG” value does the source give for SEEDEEREHWERLNRDFELRVLDTTFIAHHAEEVIKLLRWLEK [K5E] here?
Answer: The value was 1.39 kcal/mol.

Question: With SEEDNEREHWERLNRDFELRVLDTTFIAHHAEEVIKLLRWLEK [K5N] as the variant, how does the “folding stability dG” value read?
Answer: Its value is 1.29 kcal/mol.

Question: For SEEDREREHWERLNRDFELRVLDTTFIAHHAEEVIKLLRWLEK [K5R], which “folding stability dG” value is on record?
Answer: The value was 1.23 kcal/mol.

Question: Which “folding stability dG” value does the source give for SEEDTEREHWERLNRDFELRVLDTTFIAHHAEEVIKLLRWLEK [K5T] here?
Answer: Its value is 1.21 kcal/mol.

Question: Which “folding stability dG” value does the source give for SEEDIEREHWERLNRDFELRVLDTTFIAHHAEEVIKLLRWLEK [K5I] here?
Answer: Its value is 1.17 kcal/mol.

Question: With SEEDMEREHWERLNRDFELRVLDTTFIAHHAEEVIKLLRWLEK [K5M] as the variant, how does the “folding stability dG” value read?
Answer: Its value is 1.21 kcal/mol.

Question: For SEEDFEREHWERLNRDFELRVLDTTFIAHHAEEVIKLLRWLEK [K5F], which “folding stability dG” value is on record?
Answer: The value was 1.44 kcal/mol.

Question: Which “folding stability dG” value does the source give for SEEDKEREHGERLNRDFELRVLDTTFIAHHAEEVIKLLRWLEK [W10G] here?
Answer: The value was 1.12 kcal/mol.

Question: Which “folding stability dG” value does the source give for SEEDKEREHAERLNRDFELRVLDTTFIAHHAEEVIKLLRWLEK [W10A] here?
Answer: The value was 1.03 kcal/mol.

Question: With SEEDKEREHRERLNRDFELRVLDTTFIAHHAEEVIKLLRWLEK [W10R] as the variant, how does the “folding stability dG” value read?
Answer: The value was 1.02 kcal/mol.

Question: Which “folding stability dG” value does the source give for SEEDKEREHKERLNRDFELRVLDTTFIAHHAEEVIKLLRWLEK [W10K] here?
Answer: The value was 1.22 kcal/mol.

Question: With SEEDKEREHQERLNRDFELRVLDTTFIAHHAEEVIKLLRWLEK [W10Q] as the variant, how does the “folding stability dG” value read?
Answer: The value was 1.25 kcal/mol.

Question: For SEEDKEREHIERLNRDFELRVLDTTFIAHHAEEVIKLLRWLEK [W10I], which “folding stability dG” value is on record?
Answer: The value was 1.2 kcal/mol.

Question: Which “folding stability dG” value does the source give for SEEDKEREHVERLNRDFELRVLDTTFIAHHAEEVIKLLRWLEK [W10V] here?
Answer: The value was 1.03 kcal/mol.

Question: Which “folding stability dG” value does the source give for SEEDKEREHDERLNRDFELRVLDTTFIAHHAEEVIKLLRWLEK [W10D] here?
Answer: The value was 1.25 kcal/mol.

Question: For SEEDKEREHNERLNRDFELRVLDTTFIAHHAEEVIKLLRWLEK [W10N], which “folding stability dG” value is on record?
Answer: Its value is 1.15 kcal/mol.

Question: Which “folding stability dG” value does the source give for SEEDKEREHSERLNRDFELRVLDTTFIAHHAEEVIKLLRWLEK [W10S] here?
Answer: The value was 1.17 kcal/mol.

Question: With SEEDKEREHPERLNRDFELRVLDTTFIAHHAEEVIKLLRWLEK [W10P] as the variant, how does the “folding stability dG” value read?
Answer: The value was 0.979 kcal/mol.

Question: For SEEDKEREHHERLNRDFELRVLDTTFIAHHAEEVIKLLRWLEK [W10H], which “folding stability dG” value is on record?
Answer: Its value is 1.09 kcal/mol.

Question: For SEEDKEREHCERLNRDFELRVLDTTFIAHHAEEVIKLLRWLEK [W10C], which “folding stability dG” value is on record?
Answer: The value was 1.79 kcal/mol.

Question: For SEEDKEREHFERLNRDFELRVLDTTFIAHHAEEVIKLLRWLEK [W10F], which “folding stability dG” value is on record?
Answer: Its value is 1.32 kcal/mol.

Question: With SEEDKEREHYERLNRDFELRVLDTTFIAHHAEEVIKLLRWLEK [W10Y] as the variant, how does the “folding stability dG” value read?
Answer: Its value is 1.09 kcal/mol.

Question: For SEEDKEREHTERLNRDFELRVLDTTFIAHHAEEVIKLLRWLEK [W10T], which “folding stability dG” value is on record?
Answer: Its value is 1.07 kcal/mol.

Question: With SEEDKEREHMERLNRDFELRVLDTTFIAHHAEEVIKLLRWLEK [W10M] as the variant, how does the “folding stability dG” value read?
Answer: The value was 1.05 kcal/mol.

Question: Which “folding stability dG” value does the source give for SEEDKEREHEERLNRDFELRVLDTTFIAHHAEEVIKLLRWLEK [W10E] here?
Answer: The value was 1.05 kcal/mol.

Question: Which “folding stability dG” value does the source give for SEEDKEREHLERLNRDFELRVLDTTFIAHHAEEVIKLLRWLEK [W10L] here?
Answer: The value was 1.36 kcal/mol.

Question: Which “folding stability dG” value does the source give for SEEDKESEHWERLNRDFELRVLDTTFIAHHAEEVIKLLRWLEK [R7S] here?
Answer: Its value is 1.3 kcal/mol.

Question: Which “folding stability dG” value does the source give for SEEDKEGEHWERLNRDFELRVLDTTFIAHHAEEVIKLLRWLEK [R7G] here?
Answer: Its value is 1.47 kcal/mol.

Question: For SEEDKEEEHWERLNRDFELRVLDTTFIAHHAEEVIKLLRWLEK [R7E], which “folding stability dG” value is on record?
Answer: Its value is 1.3 kcal/mol.

Question: For SEEDKEMEHWERLNRDFELRVLDTTFIAHHAEEVIKLLRWLEK [R7M], which “folding stability dG” value is on record?
Answer: The value was 1.46 kcal/mol.
